# T1: IL-2hex, mutant human IL-2 (deltaA1/T3A/F42A/Y45A/L72G/C125S) (human, UniProt P60568 22-153)
# T1 chain: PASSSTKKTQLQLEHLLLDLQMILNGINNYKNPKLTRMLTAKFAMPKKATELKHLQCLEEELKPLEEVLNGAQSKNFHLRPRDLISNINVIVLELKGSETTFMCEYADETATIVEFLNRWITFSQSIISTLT
# Assays:
# [1] = biological target: T2, human Fibroblast Activation Protein (FAP), soluble antigen (human, UniProt Q12884 26-760, biotinylated when immobilized on streptavidin sensors); test: Affinity (nM), Table 13B
# T2 construct: also called hFAP; biotinylated FAP
# [2] = biological target: T1, IL-2hex, mutant human IL-2 …; test: Affinity (nM), Table 13B
# [3] = biological target: human FAP expressed on cells (HEK 293T-hFAP-E5; ExpiCHO-hFAP) (human, UniProt Q12884 1-760); test: cell-based or functional assay
# [4] = biological target: T1, IL-2hex, mutant human IL-2 …; test: cell-based or functional assay
# [5] = biological target: T2, human Fibroblast Activation Protein …; test: not stated (legend of FIG. 20B)
# [6] = biological target: T1, IL-2hex, mutant human IL-2 …; test: not stated (legend of FIG. 20B)
# [7] = biological target: T3, human interleukin-2 (IL-2), wild type (human, UniProt P60568 21-153, biotinylated when immobilized); test: BLI, equilibrium binding analysis, biotinylated IL-2 on streptavidin sensor, monovalent Fab-Fc fusion of D002
# T3 construct: also called biotinylated IL-2; IL2 WT
# [8] = biological target: T2, human Fibroblast Activation Protein …; test: BLI, FAP on streptavidin sensor, monovalent Fab-Fc fusion of D002
# [9] = biological target: T1, IL-2hex, mutant human IL-2 …; test: not stated in the sentence (BLI value of FIG. 4B, there told for IL-2)
# [10] = biological target: T2, human Fibroblast Activation Protein …; test: BLI per 6.1.3, human FAP;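 for Kd: biolayer interferometry with immobilized antigen on sensors, antibody association up to 240 s then dissociation up to 420 s, reference-subtracted, global 1:1 fit with unlinked Rmax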;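 for kon: biolayer interferometry with immobilized antigen on sensors, antibody association up to 240 s then dissociation up to 420 s, reference-subtracted, global 1:1 fit with unlinked Rmax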
# [11] = biological target: T2, human Fibroblast Activation Protein …; test: BLI per 6.1.3, human FAP; remark: listed apart in the source;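 for Kd: biolayer interferometry with immobilized antigen on sensors, antibody association up to 240 s then dissociation up to 420 s, reference-subtracted, global 1:1 fit with unlinked Rmax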;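 for kon: biolayer interferometry with immobilized antigen on sensors, antibody association up to 240 s then dissociation up to 420 s, reference-subtracted, global 1:1 fit with unlinked Rmax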
# [12] = biological target: T1, IL-2hex, mutant human IL-2 …; test: screening of phage libraries, monoclonal phage ELISA
# [13] = biological target: T3, human interleukin-2 (IL-2), wild type; test: BLI; Table 11, antibody variants (Fab/scFv)
# [14] = biological target: T2, human Fibroblast Activation Protein …; test: BLI; Table 11, antibody variants (Fab/scFv)
# [15] = biological target: T2, human Fibroblast Activation Protein …; test: not stated (legend of FIG. 27C)
# [16] = biological target: T2, human Fibroblast Activation Protein …; test: not stated (legend of FIG. 18B)
# T3 sequence (P60568 21-153): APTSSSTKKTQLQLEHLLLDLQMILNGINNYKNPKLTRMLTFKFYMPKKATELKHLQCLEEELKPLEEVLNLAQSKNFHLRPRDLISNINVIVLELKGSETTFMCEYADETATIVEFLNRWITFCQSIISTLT
binder,measurement,setting,value
"D029-HV1LV1 (bispecific antibody, V domains shown, also called D029 Rev1/S55L; D029HVILV1 (so in the source)) VH: EVQLVESGGGLVQPGGSLRLSCAASGFTFTWSFMSWVRQAPGKGLEWVSWIGPSGLYTDYADSVKGRFTISRDNSKNTLYLQMNSLRAEDTAVYYCARSQYGRYYSPDYYFDYWGQGTLVTVSS VL: DIQMTQSPSSLSASVGDRVTITCRASQALGFYLNWYQQKPGKAPKLLIYAASSLSSGVPSRFSGSGSGTDFTLTISSLQPEDFATYYCQQGRTPPLTFGQGTKVEIKR",Kd,[1],1.8 nM
same,Kd,[2],427 nM
same,EC50 of HEK-Blue IL2 assay (pM) with HEK 293T-hFAP-E5; variant as masking moiety of a configuration 3 immunoconjugate,[3],42 pM
same,EC50 of HEK-Blue IL2 assay (pM) with HEK 293T; variant as masking moiety of a configuration 3 immunoconjugate,[4],6060 pM
same,Kd,[5],> 5000 nM
same,Kd,[6],~237 nM
"anti-IL-2/anti-FAP two-in-one antibody D002 (bispecific antibody, V domains shown) VH: EVQLVESGGGLVQPGGSLRLSCAASGFTFSRYSMSWVRQAPGKGLEWVSDISSYSTTYYADSVKGRFTISRDNSKNTLYLQMNSLRAEDTAVYYCARSQYGRYYSPDYYFDYWGQGTLVTVSS VL: DIQMTQSPSSLSASVGDRVTITCRASQSIGNSLNWYQQKPGKAPKLLIYAASSLQSGVPSRFSGSGSGTDFTLTISSLQPEDFATYYCQQGRRSPFTFGQGTKVEIKR",Kd,[7],3400 nM
same,Kd,[8],~50 nM
same,Kd,[9],~3400 nM
"anti-FAP antibody 872-5V1 (antibody, V domains shown, KD by BLI per 6.1.3 (monovalent Fab-Fc)) VH: EVQLVESGGGLVQPGGSLRLSCAASGFTFRGYIMSWVRQAPGKGLEWVSWIGPEGSRTGYADSVKGRFTISRDNSKNTLYLQMNSLRAEDTAVYYCARLLYGTWFDYWGQGTLVTVSS VL: DIQMTQSPSSLSASVGDRVTITCRASQSISSYLNWYQQKPGKAPKLLIYAASSLQSGVPSRFSGSGSGTDFTLTISSLQPEDFATYYCQQGTLLLPTFGQGTKVEIKR",Kd,[10],< 0.1 nM
same,kon,[10],625000 M⁻¹ s⁻¹
same,improvement of the affinity over parent 872-5 (fold),[11],> 80 fold
"anti-IL-2/anti-FAP two-in-one antibody D001 (bispecific antibody, V domains shown, Fab/scFv or monovalent Fab-Fc) VH: EVQLVESGGGLVQPGGSLRLSCAASGFTFSRYSMSWVRQAPGKGLEWVSAISPYGGGTDYADSVKGRFTISRDNSKNTLYLQMNSLRAEDTAVYYCARSQYGRYYSPDYYFDYWGQGTLVTVSS VL: DIQMTQSPSSLSASVGDRVTITCRASQVIGSSLNWYQQKPGKAPKLLIYAASSLQSGVPSRFSGSGSGTDFTLTISSLQPEDFATYYCQQGRSYPYTFGQGTKVEIKR",binding result,[12],binds
same,Kd,[13],> 5000 nM
same,Kd,[14],30 nM
"anchoring moiety of FB-675 and FB-676: scFv872-5Dbl(S-S) (scFv, V domains shown, disulfide to VH at VL residue 100; disulfide to VL at VH residue 44, also called scFv872-5V1) VH: EVQLVESGGGLVQPGGSLRLSCAASGFTFRGYIMSWVRQAPGKGLEWVSWIGPEGSRTGYADSVKGRFTISRDNSKNTLYLQMNSLRAEDTAVYYCARLLYGTWFDYWGQGTLVTVSS VL: DIQMTQSPSSLSASVGDRVTITCRASQSISSYLNWYQQKPGKAPKLLIYAASSLQSGVPSRFSGSGSGTDFTLTISSLQPEDFATYYCQQGTLLLPTFGQGTKVEIKR",Kd,[15],~50 nM
same,Kd,[16],~5 nM
